{"source": "paper PMC11206218", "about": "(Science Advances, 2020)", "binders": {"B1": {"name": "TIM8·13(Tim8_(K30F,S36L)) mutant chaperone complex (complex, S. cerevisiae)", "chain 1": "MSSLSTSDLASLDDTSKKEIATFLEGENSFQKVQMLIHQFTNICFKKCVESVNDSNLSSQEEQCLSNCVNRFLDTNIRIVNGLQNTR", "chain 2": "GGLSSIFGGGAPSQQKEAATTAKTTPNPIAKELKNQIAQELAVANATELVNKISENCFEKCLTSPYATRNDACIDQCLAKYMRSWNVISKAYISRIQNASASGEI"}}, "biological_target": "T1, S. cerevisiae Ggc1(C222S) with C-terminal His6-tag (S. cerevisiae, UniProt P38988 1-300, C222S)", "T1 sequence (looked up)": "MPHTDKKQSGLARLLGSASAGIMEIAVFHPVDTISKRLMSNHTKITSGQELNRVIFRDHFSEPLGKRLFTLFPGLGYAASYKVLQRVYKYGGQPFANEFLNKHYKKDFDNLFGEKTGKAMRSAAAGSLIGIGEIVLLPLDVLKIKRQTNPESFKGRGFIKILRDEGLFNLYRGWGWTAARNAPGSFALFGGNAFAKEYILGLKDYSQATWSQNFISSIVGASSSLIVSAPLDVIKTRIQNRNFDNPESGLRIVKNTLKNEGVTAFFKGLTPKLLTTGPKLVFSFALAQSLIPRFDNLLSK", "assay": "pull-down"}
{"binder": "B1", "values": [{"measurement": "binding result", "value": "binds"}]}
